Experimental data published in article doi:10.1101/2022.01.09.475535 (bioRxiv, 2022).

T1: SF3B1 ULM5 peptide (residues 333-351), wild type (human, UniProt O75533-1 333-351)
T1 peptide: KRKSRWDETPASQMGGSTP


Target: T1, SF3B1 ULM5 peptide (residues 333-351), …
Assay: ITC

| Binder | fold increase of affinity against the ULM5 peptide with the longer N-terminus | fold decrease of affinity against the wild-type U2AF2 UHM |
| --- | --- | --- |
| U2AF2 UHM (U2AF homology motif domain of U2AF2) (domain or fragment) TEVLCLMNMVLPEELLDDEEYEEIVEDVRDECSKYGLVKSIEIPRPVDGVEVPGCGKIFVEFTSVFDCQKAMQGLTGRKFANRVVVTKYCDPDSYHRRDFW | 2 fold | – |
| U2AF2 UHM K453A (domain or fragment) TEVLCLMNMVLPEELLDDEEYEEIVEDVRDECSKYGLVKSIEIPRPVDGVEVPGCGKIFVEFTSVFDCQKAMQGLTGRAFANRVVVTKYCDPDSYHRRDFW | – | 4 fold |
